{
  "source": "paper PMC4961847",
  "about": "(2016)",
  "molecular_target": "PD-L1 ECD (Homo sapiens, UniProt Q9NZQ7)",
  "sequence (Q9NZQ7 19-238)": "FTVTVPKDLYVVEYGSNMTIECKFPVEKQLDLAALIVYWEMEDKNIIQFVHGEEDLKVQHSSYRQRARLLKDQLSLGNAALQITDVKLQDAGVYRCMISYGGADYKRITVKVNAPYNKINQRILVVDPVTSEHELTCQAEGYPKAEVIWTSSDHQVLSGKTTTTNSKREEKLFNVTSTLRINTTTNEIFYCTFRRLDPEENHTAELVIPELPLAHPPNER",
  "experiment": "magneto-nanosensor",
  "data": [
    {"binder": "PD-L2 ECD (protein) LFTVTVPKELYIIEHGSNVTLECNFDTGSHVNLGAITASLQKVENDTSPHRERATLLEEQLPLGKASFHIPQVQVRDEGQYQCIIIYGVAWDYKYLTLKVKASYRKINTHILKVPETDEVELTCQATGYPLAEVSWPNVSVPANTSHSRTPEGLYQVTSVLRLKPPPGRNFSCVFWNTHVRELTLASIDLQSQMEPRTHPT", "values": [
      {"measurement": "Kd", "value": 9.1, "unit": "µM"}
    ]}
  ]
}
